Substrate: NC[C@H](N)C(=O)O
Assay: coupled NADH oxidation assay
Format: biochemical, Salmonella enterica
Settings: ATP, Mg2+ used in place of beta-alanine

B1: pantothenate synthetase (PanC) (Salmonella enterica subsp. enterica serovar Typhimurium str. LT2) (protein)
chain: MLIIETLPLLRQHIRRLRQEGKRVALVPTMGNLHDGHMKLVDEAKARADVVIVSIFVNPMQFDRPDDLVRYPRTLQEDCEKLNKRKVDYVFAPAVEEIYPHGLEGQTYVDVPGLSTMLEGASRPGHFRGVSTIVSKLFNLIQPDIACFGEKDFQQLALIRKMVADMSYDIEIVGVPIIRAKDGLALSSRNAYLTAEQRKIAPGLYNVMNSIAEKLIAGNRELQEIIAIAEQELNEKGFRADDIQIRDADTLLELTETSKRAVILAAAWLGQARLIDNQSVTLAQ
For B1, the Km was 8.1 mM.

— article PMC5384650
